Data from the DeepSol protein solubility set.

Assay: soluble on expression in E. coli; label from the status in PepcDB or PDB records

Row | Sequence | soluble on expression in E. coli
1 | MSEAEARPTNFIRQIIDEDLASGKHTTVHTRFPPEPNGYLHIGHAKSICLNFGIAQDYKGQCNLRFDDTNPVKEDIEYVESIKNDVEWLGFHWSGNVRYSSDYFDQLHAYAIELINKGLAYVDELTPEQIREYRGTLTQPGKNSPYRDRSVEENLALFEKMRAGGFEEGKACLRAKIDMASPFIVMRDPVLYRIKFAEHHQTGNKWCIYPMYDFTHCISDALEGITHSLRTLEFQDNRRLYDWVLDNITIPVHPRQYEFSRLNLEYTVMSKRKLNLLVTDKHVEGWDDPRMPTISGLRRRGYTAASIREFCKRIGVTKQDNTIEMASLESCIREDLNENAPRAMAVIDPVKLVIENYQGEGEMVTMPNHPNKPEMGSRQVPFSGEIWIDRADFREEANKQYKRLVLGKEVRLRNAYVIKAERVEKDAEGNITTIFCTYDADTLSKDPADGRKVKGVIHWVSAAHALPVEIRLYDRLFSVPNPGAADDFLSVINPESLVIKQGFAEPSLKDAVAGKAFQFEREGYFCLDSRHSTAEKPVFNRTVGLRDTLEHHHHHH | soluble
2 | MGSDKIHHHHHHMMTQLSAPTLTKDPLTSQDRQIIATIVNQSDYSKECKPEDVVTIWINSDDIVWVKMTHGYARYHKQSFKRAVAEVKASLSAPVERNHKEEKELKQASEKIGLLGDCDWLSLSVQYHSDKVTGHAACYISHKARILTPLAEWDFTIPKWNMPAAICPDCDGHGCGNCGYRGTRAEDLCTPVDGYRLTYVGKTDIQTAHNVYLDGVFLGILFKVRNPDEIWENDPKTYYWQGSNGMKYWSLKEAVESFTQDVVTNKVPQVRQELAVA | not soluble
3 | MSLKVLAFDTSSKALSLAILEDKQVLAETTINIKKNHSITLMPAIDFLMASLDWTPKDLDRIVVAEGPGSYTGLRIAVATAKTLAHTLNIELVGMSSLLALVPYQQEGLFIPLMDARRNNVYAGFYENAKPVMAEAHLPFERVIELIKGASQVTFVGEVGPFVEQIQKHLPRTDYKETLPNAANLALLAWDKEADSLHDFVPNYLKRVEAEENWLKNHTESGESYIKRLEGHHHHHH | soluble
4 | MATHVAIIGNGVGGFTTAQALRAEGFEGRISLIGDEPHLPYDRPSLSKAVLDGSLERPPILAEADWYGEARIDMLTGPEVTALDVQTRTISLDDGTTLSADAIVIATGSRARTMALPGSQLPGVVTLRTYGDVQVLRDSWTSATRLLIVGGGLIGCEVATTARKLGLSVTILEAGDELLVRVLGRRIGAWLRGLLTELGVQVELGTGVVGFSGEGQLEQVMASDGRSFVADSALICVGAEPADQLARQAGLACDRGVIVDHCGATLAKGVFAVGDVASWPLRAGGRRSLETYMNAQRQAAAVAAAILGKNVSAPQLPVSWTEIAGHRMQMAGDIEGPGDFVSRGMPGSGAALLFRLQERRIQAVVAVDAPRDFALATRLVEARAAIEPARLADLSNSMRDFVRANEGDLT | soluble
5 | MTQATTRICILGGGFGGLYTALRLSQLPWESTPKPEIILVDQSDRFLFSPFLYELLTGELQAWEIAPPYQELLQGTGVRFHQAVVSEIDTDKQQVQLQNGLEIAYDRLVLALGGETPLDLVPGATTYAHHFRSITEVYRLEESLRVLEASETEKIRIAIVGAGYSGVELACKLADRIGEKGRFRLIEISDQILRTSPEFNRQAAKKALETRGVFIDLETKVVSIGENTISLEYKTQVDEIPVDLVIWTVGTRVAPLVKTLPLKQNQRGQITTTSKLQVLEHPEIFALGDLADCLDTEGKQVPATAQVAFQQADYTAWNIWASLTNRPLLPFRYQQLGEMMALGVDNATLTGLGIKLDGSLAYIARRLAYLYRLPTLEHQLKVGFSWLVSPIIKTLSQ | not soluble
6 | MLEEVERWLDARSWPAADRPVQHLLSAKHATGQSVSVVLPALDEEATVGDIVSVIRRELVLGVPLVDEIVVVDSGSSDRTSEVAAAAGARVVHRDAILPRIPAVPGKGEVLWRSLLVTGGDIVCFVDADLREFSADFVSGIVGPLLTDPDVHLVKAMYDRPLAGAAGQGGRVTELMARPLLNMHWPQLAGFVQPLGGEYAARRSLLERLPFPVGYGVELGMLVDALHLVGLDALAQVDVGVRVHRHQDGRALGRMAAAIYRTAQLRLARGHLVRPALTQFERGVDGFEPRTYAVDTEERPPMTEIAEYAARKVALEHHHHHH | soluble
7 | ASASYYEQYHSLNEIYSWIEFITERHPDMLTKIHIGSSFEKYPLYVLKVSGKEQAAKNAIWIDCGIHAREWISPAFCLWFIGHITQFYGIIGQYTNLLRLVDFYVMPVVNVDGYDYSWKKNRMWRKNRSFYANNHCIGTDLNRNFASKHWCEEGASSSSCSETYCGLYPESEPEVKAVASFLRRNINQIKAYISMHSYSQHIVFPYSYTRSKSKDHEELSLVASEAVRAIEKTSKNTRYTHGHGSETLYLAPGGGDDWIYDLGIKYSFTIELRDTGTYGFLLPERYIKPTCREAFAAVSKIAWHVIRNV | soluble
8 | MGSDKIHHHHHHMKIGIIGAGRVGCSIGKYLRTKDIELAGYYDVDSAAAKEAAEFTRTESFDSLKQLADQSQIIFITTPDSFIIPVWEQLKELSLTNQIICHCSGALSSDSFSGRESMSVSCCSIHPMLPFSNKFSSYEQLNKAFFTVEGQDAAVEAISGLFCSIGNEVCRIDGAKKAKYHAAASILSNQVIAVLDMGYSLLEDCGFTRAEAVRATGQLVMRNIENVLEAGCDGALTGPIERNDIETVKKHIACMQNDDSDDVRLYKMLGTKLVNIAEKKNPDKDYTQMMELLRG | not soluble
9 | MQSKLITELTDLETAFHIRKEVFVKEQGVPLTDEFDTFDEIGEQCKHILVYYHELPVGTGRIRFVDGVGKLERICILKDYRTYGLGKVIIQTLEEIARNEQATKVKLHGQTQAEGFYKKLGYETSSDIFMEDGIPHILMTKMLS | not soluble
10 | MAETVESSLAKSHIEGSFTNVWKDDKTLDWYANYEGILWKATGVVVITGDETQVYAIWVPVGLAIPENEGGGSEGGGSEGGGSEGGGTKPPEYGDTPIPGYIYINPLDGTYPPGTEQNPANPNPSLEESHPLNTFMFQGNRFRNRQGALTVYTGTVTQGTDPVKTYYQYTPVSSKAMYDAYWNGKFRDVAFHSGFNEDPLVAEYQGQLSYLPQPPVNAPSGHHHHHH | soluble
11 | MTGLLDGKRILVSGIITDSSIAFHIARVAQEQGAQLVLTGFDRLRLIQRITDRLPAKAPLLELDVQNEEHLASLAGRVTEAIGAGNKLDGVVHSIGFMPQTGMGINPFFDAPYADVSKGIHISAYSYASMAKALLPIMNPGGSIVGMDFDPSRAMPAYNWMTVAKSALESVNRFVAREAGKYGVRSNLVAAGPIRTLAMSAIVGGALGEEAGAQIQLLEEGWDQRAPIGWNMKDATPVAKTVCALLSDWLPATTGDIIYADGGAHTQLL | soluble
12 | MSKIADDQNFNDEEENFAKLFKKELEKEETLEKGTIKEGLVVSINENDGYAMVSVGGKTEGRLALNEITDEKGQLLYQKNDPIIVHVSEKGEHPSVSYKKAISQQKIQAKIEELGENYENAIIEGKIVGKNKGGYIVESQGVEYFLSRSHSSLKNDANHIGKRVKACIIRVDKENHSINISRKRFFEVNDKRQLEVSKELLEATEPVLGVVRQITPFGIFVEAKGIEGLVHYSEISHKGPVNPEKYYKEGDEVYVKAIAYDAEKRRLSLSIKATIEDPWEEIQDKLKPGYAIKVVVSNIEHYGVFVDIGNDIEGFLHVSEISWDKNVSHPNNYLSVGQEIDVKIIDIDPKNRRLRVSLKQLTNRPFDVFESKHQVGDVLEGKVATLTDFGAFLNLGGVDGLLHNHDAFWDKDKKCKDHYKIGDVIKVKILKINKKDKKISLSAKHLVTSPTEEFAQKHKTDSVIQGKVVSIKDFGVFINADGIDVLIKNEDLNPLKKDEIKIGQEITCVVVAIEKSNNKVRASVHRLERKKEKEELQAFNTSDDKMTLGDILKEKLLEHHHHHH | soluble
13 | QTLRALAERAARIEQDPAAGDYMSALRELPFIRELMAGRLPLQWAPARMVSDDPAKGLGKAPPAGLLTQQLRNILGEPRRTLDLVSPYFVPAEAGTQAFAALARGGAQVRVLTNALEATDVAVVHSGYAKRRKALLQAGVRLYEMRRSYAGPKPQGRGRFGSSGSSLHAKTFGVDGERVFIGSFNFDPRSANLNTELGFVIESPDMARHIAATFDQDIPAATYEVRLDDDGSLYWLE | not soluble
14 | PQASAKEYVTTTGLSPDGNQYSIGWEVPSTQEPARRSKRSTKDYAFETNQLENGMQTLIHIENSEAPTEYRFPLSLPQEAEVIPFSEGSED | not soluble
